This is an account of results in patent publication US20260258149A1.

This assay has as its target BSA-STn. The assay can be described thus: SPR, BSA-STn-serine immobilised on the chip as ligand, antibody injected as analyte. On the technique in general: In SPR one partner is held on a chip, and binding of the other changes the refractive index at the surface.

B1: humanized anti-STn antibody clone V3 (antibody, V domains shown)
VH: QVQLQESGPGLVKPSQTLSLTCSVIGYSITSGYYWNWIRQPPGKGLEWIGSINYDGSNIYNPSLKDRVTISRDTSKNQFSLKLSSVTAADTAVYYCARGGDYWGQGTTVTVSS
VL: EIVLTQSPATLSLSPGERATLSCSASSSVSYMHWFQQKPGQAPRRWIYDTSKRATGVPARFSGSGSGTDYTLTISSLEPEDFAAYYCQQWSSDPPMLTFGGGTKLEIK
The term Kd denotes the free concentration of one partner at which half of the binding sites on the other are occupied at equilibrium, for simple one-to-one binding. The term koff denotes the first-order rate constant of dissociation. Read a high koff as fast dissociation. Broadly, the kon is a measure of how fast the partners come together. B1 returned a Kd of 33.2 nM, a koff of 0.00568 s⁻¹ and a kon of 171000 M⁻¹ s⁻¹.

B2: humanized anti-STn antibody clone V2 (antibody, V domains shown)
VH: QVQLQESGPGLVKPSQTLSLTCSVIGYSITSGYYWNWIRQPPGKGLEWIGSINYDGSNIYNPSLKDRVTISRDTSKNQFSLKLSSVTAADTAVYYCARGGDYWGQGTTVTVSS
VL: DIVLTQSPAILSLSPGERATLSCSASSSVSYMHWFQQKSGQAPKRWIYDTSKLASGVPARFSGSGSGTDYTLTISSLEAEDFAAYYCQQWSSDPPMLTFGGGTKLEIK
In turn, B2 yielded a Kd of 39.4 nM, a koff of 0.00519 s⁻¹ and a kon of 132000 M⁻¹ s⁻¹.

B3: humanized anti-STn antibody clone V1 (antibody, V domains shown)
VH: QVQLQESGPGLVKPSQTLSLTCTVIGYSITSGYYWNWIRQPPGKGLEWIGSINYDGSNIYNPSLKSRVTISRDTSKNQFSLKLSSVTAADTAVYYCARGGDYWGQGTTVTVSS
VL: EIVLTQSPATLSLSPGERATLSCSASSSVSYMHWFQQKPGQAPRRWIYDTSKRATGVPARFSGSGSGTDYTLTISSLEPEDFAAYYCQQWSSDPPMLTFGGGTKLEIK
In the case of B3, the Kd amounted to 31.7 nM, the koff is 0.00553 s⁻¹ and the kon was 174000 M⁻¹ s⁻¹.
